The values that follow come from IntAct's records for PubMed 24658140.

B1: Receptor tyrosine-protein kinase erbB-4 (Homo sapiens), Q15303 (parent)
chain: MKPATGLWVWVSLLVAAGTVQPSDSQSVCAGTENKLSSLSDLEQQYRALRKYYENCEVVMGNLEITSIEHNRDLSFLRSVREVTGYVLVALNQFRYLPLENLRIIRGTKLYEDRYALAIFLNYRKDGNFGLQELGLKNLTEILNGGVYVDQNKFLCYADTIHWQDIVRNPWPSNLTLVSTNGSSGCGRCHKSCTGRCWGPTENHCQTLTRTVCAEQCDGRCYGPYVSDCCHRECAGGCSGPKDTDCFACMNFNDSGACVTQCPQTFVYNPTTFQLEHNFNAKYTYGAFCVKKCPHNFVVDSSSCVRACPSSKMEVEENGIKMCKPCTDICPKACDGIGTGSLMSAQTVDSSNIDKFINCTKINGNLIFLVTGIHGDPYNAIEAIDPEKLNVFRTVREITGFLNIQSWPPNMTDFSVFSNLVTIGGRVLYSGLSLLILKQQGITSLQFQSLKEISAGNIYITDNSNLCYYHTINWTTLFSTINQRIVIRDNRKAENCTAEGMVCNHLCSSDGCWGPGPDQCLSCRRFSRGRICIESCNLYDGEFREFENGSICVECDPQCEKMEDGLLTCHGPGPDNCTKCSHFKDGPNCVEKCPDGLQGANSFIFKYADPDRECHPCHPNCTQGCNGPTSHDCIYYPWTGHSTLPQHARTPLIAAGVIGGLFILVIVGLTFAVYVRRKSIKKKRALRRFLETELVEPLTPSGTAPNQAQLRILKETELKRVKVLGSGAFGTVYKGIWVPEGETVKIPVAIKILNETTGPKANVEFMDEALIMASMDHPHLVRLLGVCLSPTIQLVTQLMPHGCLLEYVHEHKDNIGSQLLLNWCVQIAKGMMYLEERRLVHRDLAARNVLVKSPNHVKITDFGLARLLEGDEKEYNADGGKMPIKWMALECIHYRKFTHQSDVWSYGVTIWELMTFGGKPYDGIPTREIPDLLEKGERLPQPPICTIDVYMVMVKCWMIDADSRPKFKELAAEFSRMARDPQRYLVIQGDDRMKLPSPNDSKFFQNLLDEEDLEDMMDAEEYLVPQAFNIPPPIYTSRARIDSNRSEIGHSPPPAYTPMSGNQFVYRDGGFAAEQGVSVPYRAPTSTIPEAPVAQGATAEIFDDSCCNGTLRKPVAPHVQEDSSTQRYSADPTVFAPERSPRGELDEEGYMTPMRDKPKQEYLNPVEENPFVSRRKNGDLQALDNPEYHNASNGPPKAEDEYVNEPLYLNTFANTLGKAEYLKNNILSMPEKAKKAFDNPDYWNHSLPPRSTLQHPDYLQEYSTKYFYKQNGRIRPIVAENPEYLSEFSLKPGTVLPPPPYRHRNTVV
partner: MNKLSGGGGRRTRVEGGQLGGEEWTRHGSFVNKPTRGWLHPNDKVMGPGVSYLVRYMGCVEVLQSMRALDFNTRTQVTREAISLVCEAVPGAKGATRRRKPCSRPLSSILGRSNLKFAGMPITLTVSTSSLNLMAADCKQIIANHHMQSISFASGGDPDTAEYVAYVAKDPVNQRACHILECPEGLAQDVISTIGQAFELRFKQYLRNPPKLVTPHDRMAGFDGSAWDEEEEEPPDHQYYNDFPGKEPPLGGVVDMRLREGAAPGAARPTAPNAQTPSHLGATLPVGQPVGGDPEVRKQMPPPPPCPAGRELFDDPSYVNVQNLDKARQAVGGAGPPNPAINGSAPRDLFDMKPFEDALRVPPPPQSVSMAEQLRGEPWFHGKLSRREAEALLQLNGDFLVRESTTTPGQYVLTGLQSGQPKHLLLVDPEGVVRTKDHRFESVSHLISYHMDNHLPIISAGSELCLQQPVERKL
B2: Beta-arrestin-2 (Homo sapiens), P32121-4 (parent)
chain: MGEKPGTRVFKKSSPNCKLTVYLGKRDFVDHLDKVDPVDGVVLVDPDYLKDRKVFVTLTCAFRYGREDLDVLGLSFRKDLFIATYQAFPPVPNPPRPPTRLQDRLLRKLGQHAHPFFFTVRMPLPSEGQGAGAGTVSGVGIPQNLPCSVTLQPGPEDTGKACGVDFEIRAFCAKSLEEKSHKRNSVRLVIRKVQFAPEKPGPQPSAETTRHFLMSDRSLHLEASLDKELYYHGEPLNVNVHVTNNSTKTVKKIKVSVRQYADICLFSTAQYKCPVAQLEQDDQVSPSSTFCKVYTITPLLSDNREKRGLALDGKLKHEDTNLASSTIVKEGANKEVLGILVSYRVKVKLVVSRGGDVSVELPFVLMHPKPHDHIPLPRPQSAAPETDVPVDTNLIEFDTNYATDDDIVFEDFARLRLKGMKDDDYDDQLC

One assay covers variants of B1. The following applies: with SHC1, P29353-7.
Regarding E542K, the “effect of a mutation on the interaction” value was “increasing interaction strength”.
Same read-out and setting: the entry for E872K is “increasing interaction strength”.

Variants of B2 are the subject of a further assay. The following applies: with adrb2_human ADRB2, P07550.
As to R169E, the “effect of a mutation on the interaction” value was “decreasing interaction strength”.
